Measurements reported in the supplement of paper PMC10126150.
± gives the standard deviation of the averaged measurements.

Tested on: ATP
Experiment: switch fluorescence ratio, 500 uM ATP over buffer (Cy3 cluster intensity, sum of 5 cycles each) (fold (ratio)); higher = stronger signal-on switching upon ATP binding; sequences stand for … in TCGTCGGCAGCGTCAGATGTGTATAAGAGACAGTTTTTTTTTTTTTTTTTTTTTTTTT…TC
Conditions: aptamer strand: ATP DNA aptamer (quencher-CACCTGGGGGAGTATTGCGGAGGAAGG + anchor), 100 nM annealed; ATP concentration: 500 uM
How it was run: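 Cy3-labelled switching-strand clusters on a modified Illumina MiSeq flow-cell were annealed to 100 nM quencher-labelled ATP aptamer and imaged first in selection buffer, then after 15 min with 500 uM ATP at 22 °C. NaOH stripping and re-annealing separated each of five buffer/ATP cycles, and clusters outside 100-1000 RFU were excluded. The fluorescence ratio sums target-cycle Cy3 intensity over buffer-cycle Cy3 intensity per cluster and averages it per switch-domain sequence.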
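Note: ATP exposure 15 min at 22 °C before imaging.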

Sequence | switch fluorescence ratio
TTTAAATGCC | 1.05 ± 0.05
ATATTTTGTA | 0.983 ± 0.036
CGTTGTAGGG | 0.989 ± 0.01
CGGGGTTTGA | 1.02 ± 0.028
AGAACGTCTA | 1 ± 0.054
TAAAGGATAA | 0.9849 ± 0.0093
ATAAGTTTGG | 1.02 ± 0.033
TTAATGCTTT | 1.13 ± 0.23
TAATTGTTGT | 1.003 ± 0.005
TTGACTTATA | 1.01 ± 0.022
CCTCACTAGT | 1.0949 ± 8.2e-05
TAACACAGTC | 1.04 ± 0.054
ATTAATTGGG | 1.01 ± 0.036
GTGTACGGGG | 0.971 ± 0.026
AAGGACGGGG | 0.974 ± 0.011
AGTTTGGTCA | 0.98 ± 0.021
TATTATTGGT | 0.992 ± 0.045
AACGGGGTCT | 0.978 ± 0.011
TATCTCCAAT | 1.12 ± 0.052
TAGGGTGCTA | 1 ± 0.019
AACGAATTAG | 1.04 ± 0.038
TTTTGCACGG | 1.04 ± 0.0077
AAGAGGGCCT | 1.01 ± 0.037
TTTTAATTTG | 0.994 ± 0.04
TTTGGTTAGC | 1.01 ± 0.02

Sequence | switch fluorescence ratio
TGGTGGGGAA | 0.974 ± 0.01
TCCGTAAACG | 1.09 ± 0.041
TACATGTGCT | 0.996 ± 0.035
TTCTATTGTT | 0.999 ± 0.017
GGGTAAAAAA | 1.02 ± 0.045
TATCTCGGGA | 0.988 ± 0.02
GGTGCGGTCG | 0.9824 ± 0.0053
AAATGACGTT | 0.9688 ± 0.0078
TCCCTACGAT | 1.06 ± 0.016
GGTTTTGGGA | 0.998 ± 0.019
CGTGCGTGTA | 1.02 ± 0.053
AGTACAATGC | 1.47 ± 0.18
TTCCGAAATG | 1.63 ± 0.17
AAGTTGTTGT | 1.007 ± 0.0025
TGATCAGGGG | 1.03 ± 0.021
TAGATGACGG | 1.01 ± 0.041
GGTAGTAAGA | 1.01 ± 0.047
TCTTGATCTG | 1.016 ± 0.0021
TATGACGCGG | 0.9833 ± 0.0053
TTTATGTGGG | 1.05 ± 0.12
ATAAACGACT | 1.06 ± 0.024
TTATTGCGGA | 0.994 ± 0.022
TTTGAATTAG | 1 ± 0.039
GCTGCTGCAC | 1.01 ± 0.049
TTTTTTGGGG | 0.984 ± 0.023

Sequence | switch fluorescence ratio
CGTGAAAGCG | 0.9683 ± 0.005
AATGGAATTT | 1.03 ± 0.066
CGGGCCGGGC | 0.983 ± 0.029
GCCTACAACA | 1.02 ± 0.029
GGGGGTCGGA | 1.03 ± 0.043
GTGGGGGGCA | 0.991 ± 0.033
TTGCTAATGC | 1.18 ± 0.23
CGTAGAAAAG | 0.998 ± 0.025
GCTTTATGTA | 0.975 ± 0.025
TAATCGTTTG | 0.962 ± 0.01
AGGTTGTCGT | 0.997 ± 0.035
ATGCATAGAT | 1.01 ± 0.032
CAACAGAGTG | 1.07 ± 0.085
GGAGGAAGGC | 1.75 ± 0.58
GAGAGGTTTG | 0.9818 ± 0.008
AAATTCATGG | 0.9809 ± 0.0021
GAGAAAATGG | 1.003 ± 0.0039
AGATAGATTG | 1 ± 0.04
ATACATCTAG | 0.996 ± 0.044
GTTTTTGGAT | 0.991 ± 0.0049
AGCGAGGGGG | 1.03 ± 0.032
AGGTGGTGAC | 0.979 ± 0.018
GTAAGAAGGA | 1.02 ± 0.07
TTTTCCAGTT | 0.998 ± 0.029
CGCGCGGGCT | 0.998 ± 0.051

Sequence | switch fluorescence ratio
GGGGAATGAA | 1.019 ± 0.009
ATATCCCAGG | 4.21 ± 0.64
AGTTCCATCG | 1.05 ± 0.047
TTGTACGCTA | 1.82 ± 0.73
CTTCAGGGGA | 1.01 ± 0.061
AAGGGCGCTG | 1.01 ± 0.048
TTGAAAGGGT | 0.981 ± 0.087
TATATAGGGG | 1 ± 0.026
CGTATTTGAG | 1 ± 0.037
GCTCGTATTA | 1 ± 0.016
GATGATCTTT | 0.966 ± 0.014
TTGGGTTGCT | 1.12 ± 0.21
TACAGTTGGC | 1.03 ± 0.084
GGGGAAAAAT | 1.01 ± 0.032
ATGGACTATG | 1.02 ± 0.043
CCAATGTTTT | 0.98 ± 0.016
CAGTTGCGAG | 0.983 ± 0.042
GAAGTAGCCT | 0.9985 ± 0.0086
ACCAGTGAGT | 0.969 ± 0.011
TTTAATGCGC | 1.23 ± 0.37
TGTATGGGGG | 0.946 ± 0.038
GGATTGGCGG | 0.983 ± 0.039
TAGGGGAGCA | 1.01 ± 0.044
CGGGGGGA | 1.39 ± 0.54
ATGTCTGTAA | 1 ± 0.013

Sequence | switch fluorescence ratio
TTTTTCCGGA | 0.997 ± 0.048
TTTTAATGAG | 0.9774 ± 0.00031
TCCGATTATG | 1.0175 ± 0.00092
GCCCTTTTTT | 1 ± 0.046
TTTGGGGGTT | 1.01 ± 0.039
TAGTATTTTT | 0.977 ± 0.023
TAGAAAAAGC | 0.9717 ± 0.0093
ATCTCTGGGT | 1 ± 0.033
CATAGAGGGT | 0.951 ± 0.03
AAACAGCTCA | 0.994 ± 0.027
GATGAGTGTG | 0.964 ± 0.041
GGGGATGTTG | 0.996 ± 0.013
CGGGGTGTTT | 1.012 ± 0.0055
GTATTTCTTA | 0.974 ± 0.0099
AGAATGATTG | 0.988 ± 0.017
CGTTGCCGTT | 1.06 ± 0.1
ATCATTAGGA | 0.9922 ± 0.0046
AAGGAAGCCG | 1.06 ± 0.044
ACCTTTTTCA | 1.021 ± 0.0084
GGTTATGGAG | 0.964 ± 0.046
GCGCGATGGA | 1.03 ± 0.019
GTGGGAATGG | 0.9747 ± 0.0072
CGTCCACAGG | 2.96 ± 0.092
AATTACGTAA | 1.06 ± 0.012
CAAACCAACG | 1.345 ± 0.0044

Sequence | switch fluorescence ratio
TTAAGTGCCC | 1 ± 0.021
TCAACCAAAA | 1.02 ± 0.011
CGGGGATTGA | 0.97 ± 0.03
TTTGAAAGGC | 1.76 ± 1.1
ATTTATTTCT | 1.03 ± 0.064
GTTTGGGGTC | 0.984 ± 0.018
TTACGGTGAC | 1.17 ± 0.059
AGAAAGGGGT | 1.01 ± 0.055
CCTAGGGTGT | 2.12 ± 0.32
CATTAGGATA | 1.0153 ± 0.00044
CTAACTGGTG | 1.2 ± 0.055
CATGTATTAT | 0.985 ± 0.034
GGATGGGGTG | 1.01 ± 0.053
TTTTATTGCG | 0.995 ± 0.011
CCTGTTGGTT | 0.955 ± 0.033
AAGTTCGCTG | 1.01 ± 0.065
GGTCGCGTAG | 1.01 ± 0.03
GGATGTGGGG | 0.969 ± 0.034
AAGATCTCGC | 0.994 ± 0.025
GTGATGCTGC | 1.07 ± 0.015
CATAATCAGG | 1.04 ± 0.03
GTGTCTACAT | 1.02 ± 0.014
GGTATACTGT | 0.975 ± 0.029
AGTGGATTGG | 1.01 ± 0.045
TGCGTGTGGT | 1.036 ± 0.0046

Sequence | switch fluorescence ratio
GGGGCACGGC | 1.01 ± 0.03
TTTCATACGT | 1.02 ± 0.05
TAGACTGGTG | 1.01 ± 0.017
TTTCAAAAAC | 1.03 ± 0.037
CTGGGGTGTG | 1.01 ± 0.039
TCGTTTGGTC | 0.986 ± 0.01
CGCTGGGGGG | 1.02 ± 0.048
CTAGGACAGC | 0.994 ± 0.012
GAGCGGGGTG | 1 ± 0.021
CTTAATCACT | 1.03 ± 0.083
CGCGTAGGGC | 1.04 ± 0.016
TCCTCAGTGC | 1.93 ± 0.13
GTTACGAAAA | 1 ± 0.056
TTTCGGATGG | 1.03 ± 0.057
CAGAATTAA | 1 ± 0.037
GTGGGCCTTT | 0.987 ± 0.015
TTTTTTTCAG | 1.01 ± 0.016
TTAAGAATTT | 0.991 ± 0.031
GGGATGTGTT | 0.9635 ± 0.0069
TTTATCCGCG | 1.25 ± 0.25
CATTAAGTGT | 0.9713 ± 0.0034
GGGCAGATAT | 1.02 ± 0.017
ATTAGGAGTC | 0.999 ± 0.012
CGTTTAAGTA | 0.973 ± 0.019
TGGGTGGGAT | 1.002 ± 0.009

Sequence | switch fluorescence ratio
TAATGAGTTA | 0.9658 ± 0.0012
TTTAATAAAG | 1.02 ± 0.041
GGGTGGGCTC | 0.971 ± 0.026
TTCGGTTATG | 1.01 ± 0.033
ATTCGGGATG | 0.979 ± 0.017
GTGTGTGGTC | 1 ± 0.021
TCCCGTTATT | 1.01 ± 0.025
AGATGACGTT | 1.01 ± 0.046
CGTGCTCTAC | 1.5 ± 0.068
TGTGTATTCC | 1.05 ± 0.037
ATTGATTGAG | 0.986 ± 0.022
TAAAGTGTTG | 1.02 ± 0.024
GACTGTCGG | 1.002 ± 0.0068
AAGAGCTAGT | 1 ± 0.013
GGCGAGGGCT | 0.982 ± 0.051
CAGGATTGTT | 1.02 ± 0.04
CAGCGCCATA | 1.078 ± 0.0042
ATGGGAAGGC | 0.983 ± 0.026
AAGGTTCTTT | 0.988 ± 0.022
GTGTTAAAGG | 0.992 ± 0.013
TAAGTGGTTT | 1 ± 0.019
GGGCCTCGGG | 0.953 ± 0.04
TTCGTTTGAA | 1 ± 0.027
AGTAACGCTT | 1.008 ± 0.01
ATGGTTTGTA | 0.9744 ± 0.0088
